# Laboratory results reported in US20210046160A1 (Synthorx, Inc., priority 2019, published 2021).
# Experiments:
# Format in all cases: cell-based
# [1] = system: CD8+ T cells; assay: pSTAT5 concentration-response in human LRS-derived PBMC samples (flow cytometry): CD8+ T cells; settings: Table 4, 45 min
# Experimental: (§1) These studies were performed at PrimityBio LLC (Fremont, Calif.). […] Staining panel for flow cytometry study of LRS-derived PBMC samples include markers for Effector T cells (Teff: CD3+, CD4+, CD8+, CD127+), NK cells (CD3-, CD16+), and Regulatory T cells (Treg: CD3+, CD4+, CD8-, IL-2Rα+, CD127-1).
# (§2) The EC50 values (pg/mL) was calculated from dose response curves generated from MFI plots. […]
# [2] = system: NK cells; assay: pSTAT5 concentration-response in human LRS-derived PBMC samples (flow cytometry): NK cells; settings: Table 4, 45 min
# Experimental: as §1, §2
# [3] = system: CTLL-2; assay: CTLL-2 proliferation; settings: Table 4
# [4] = system: Treg cells; assay: pSTAT5 concentration-response in human LRS-derived PBMC samples (flow cytometry): Treg cells; settings: Table 4; for EC50 for pSTAT5 signaling, Treg Cells: human LRS samples, 45 min; for CD8/Treg ratio: ratio of pSTAT5 EC50 values
# Experimental: as §1
# The EC50 values (pg/mL) was calculated from dose response curves generated from MFI plots.
# These studies were performed at PrimityBio LLC (Fremont, Calif.). […] Staining panel for flow cytometry study of LRS-derived PBMC samples include markers CD4, CD4+ memory central, CD4+ memory effect, CD4+ memory T cells, CD4+ Naive T cells, CD4+ T cells, CD8, CD8+ memory central, CD8+ memory effect, CD8+ memory T cells, CD8+ Naive T cells, CD8+ T cells, NK cells, and T regulatory cells.
# Conjugates of Table 12 were synthesized by modification of SEQ NO. 1. These studies were performed at PrimityBio LLC (Fremont, Calif.).
# The EC50 values (pg/ml) were calculated from dose response curves generated from the MFI plots.
# [5] = system: Human whole blood; assay: Whole blood cytokine release assay (MSD U-plex: IFN-γ, IL-4, IL-5, IL-6, IL-8, TNF-α); set-up: unit not given here; settings: for IFN-γ level, D1 / IL-6 level, D1 / IL-8 level, D1 / TNF-α level, D1 / IFN-γ level, D2 / IL-6 level, D2 / IL-8 level, D2 / TNF-α level, D2 / IFN-γ level, D3 / IL-6 level, D3 / IL-8 level, D3 / TNF-α level, D3 / IFN-γ level, D4 / IL-6 level, D4 / IL-8 level, D4 / TNF-α level, D4 / IFN-γ level, D5 / IL-6 level, D5 / IL-8 level, D5 / TNF-α level, D5 / IFN-γ level, D6 / IL-6 level, D6 / IL-8 level, D6 / TNF-α level, D6: 24 h, control conditions, conc. ug/ml: IgG4 iso 50, mouse IgG1,κ 100, PEM 90, NIVO 127, coated anti-CD3 100; for IL-4 level / IL-5 level: 90 ug/ml
# Experimental: Cytokines released from the whole blood after treatment into the supernatant were measured using the Meso Scale Discovery (MSD) U-plex kit for six analytes (IFN-γ, IL-4, IL-5, IL-6, IL-8, TNF-α).
# Blood in heparin tubes from 6 healthy donors were obtained from The Scripps Research Institute (TSRI; San Diego, Calif.) blood donor service. Samples were tested on the day of the collection; donors 1-3 on one day and donors 4-6 on another day.
# A volume of 180 μL of prediluted whole blood was seeded onto a 96-well tissue culture plate. Then, 20 μL of 10× final test concentration of compounds was added to the assay plate. […] In addition, positive and negative controls were included to show the detection and specification of the assay: 100 μg/mL pre-coated Ultra LEAF mouse anti-human CD3 were used as the positive controls for the assay. […] […] No treatment also served as a negative control for the assay.
# After adding the compound(s) to the well, the blood was incubated at 37° C. After centrifugation of the samples, supernatant was collected 24 h post treatment and stored at −80° C. before analysis. The human cytokines ([…], TNF-α, IL-8, IL-6, IL-5, IL-4) released from the assay were quantified with the MSD U-plex kit. The detection limit of each plate is reported from the MSD software, Discovery workbench. Each plate has a slightly different detection limit.
# [6] = system: CD4+ T cells co-cultured with allogeneic monoDC; assay: Allogeneic human mixed lymphocyte reaction (MLR) assay, IFN-γ secretion; settings: single agents, 5 days of co-culture
# Text: The allogeneic human mixed lymphocyte reaction (MLR) assay was used to evaluate the ability of Compound B (IL-2_P65[AzK_L1_PEG30kD]-1) to enhance TCR activation as a single agent and in combination with a checkpoint inhibitor (nivolumab or pembrolizumab), as a model for cytolytic response to tumor cells presenting specific antigens or neoantigens.
# Peripheral blood mononuclear cells (PBMCs) from two normal, healthy donors were used for each assay run. MonoDCs were generated by culturing monocytes isolated from PBMCs using a negative monocyte selection kit (Stemcell) in vitro for 7 days, involving addition of 1,500 IU/mL of IL-4 and 1,500 IU/mL of GM-CSF. The culture medium was replaced on Days 3 and 5. MonoDCs were collected on Day 7. On that day, CD4+ T cells were isolated from a different donor with a negative selection kit (Stemcell). […] Each run was set up in 3 replicates for each treatment condition. After 5 days of co-culture, IFN-γ secretion in culture supernatants was analyzed employing an enzyme-linked immunosorbent assay (ELISA) kit (Abcam; catalog #Ab46025). Clinical grade nivolumab was used to generate the data shown in FIG. 13, and research grade nivolumab (Selleckchem) was used to generate the data shown in FIG. 14. […] Data shown in FIGS. 12, 13, and 14 represent the mean of 3 replicates standard error of the mean from one donor pair.
substance,measurement,setting,value
F42_30 kD: IL-2 (SEQ ID NO: 4) PEGylated with 30 kD PEG via AzK at F42; presumably SEQ ID NO: 27,"EC50 for pSTAT5 signaling, CD8+ T Cells",[1],107944 pg/mL
same,"EC50 for pSTAT5 signaling, NK Cells",[2],16397 pg/mL
same,"EC50, CTLL-2 proliferation",[3],"123,936 pg/mL"
same,"EC50 for pSTAT5 signaling, Treg Cells",[4],36856 pg/mL
same,CD8/Treg ratio,[4],2.9
K43_30 kD: IL-2 (SEQ ID NO: 4) PEGylated with 30 kD PEG via AzK at K43; presumably SEQ ID NO: 28,"EC50 for pSTAT5 signaling, CD8+ T Cells",[1],50504 pg/mL
same,"EC50 for pSTAT5 signaling, NK Cells",[2],9004 pg/mL
same,"EC50 for pSTAT5 signaling, Treg Cells",[4],4797 pg/mL
same,CD8/Treg ratio,[4],10.5
nivolumab [reference compound],"IFN-γ level, D1",[5]; donor D1,29.77
same,"IL-6 level, D1",[5]; donor D1,1.28
same,"IL-8 level, D1",[5]; donor D1,20.59
same,"TNF-α level, D1",[5]; donor D1,2.35
same,"IFN-γ level, D2",[5]; donor D2,9.34
same,"IL-6 level, D2",[5]; donor D2,0.48
same,"IL-8 level, D2",[5]; donor D2,7.68
same,"TNF-α level, D2",[5]; donor D2,0.44
same,"IFN-γ level, D3",[5]; donor D3,6.61
same,"IL-6 level, D3",[5]; donor D3,1.09
same,"IL-8 level, D3",[5]; donor D3,7.95
same,"TNF-α level, D3",[5]; donor D3,1.33
same,"IFN-γ level, D4",[5]; donor D4,7.56
same,"IL-6 level, D4",[5]; donor D4,0.59
same,"IL-8 level, D4",[5]; donor D4,22.61
same,"TNF-α level, D4",[5]; donor D4,1.21
same,"IFN-γ level, D5",[5]; donor D5,256.75
same,"IL-6 level, D5",[5]; donor D5,3.29
same,"IL-8 level, D5",[5]; donor D5,67.38
same,"TNF-α level, D5",[5]; donor D5,4.89
same,"IFN-γ level, D6",[5]; donor D6,9.51
same,"IL-6 level, D6",[5]; donor D6,0.62
same,"IL-8 level, D6",[5]; donor D6,19.68
same,"TNF-α level, D6",[5]; donor D6,BDL
same,release of IFN-γ,[6],induced the release of IFN-γ in a concentration-dependent manner
pembrolizumab [reference compound],IL-4 level,[5]; donor D1,0.10
same,IL-5 level,[5]; donor D1,1.03
same,"IFN-γ level, D1",[5]; donor D1,52.78
same,"IL-6 level, D1",[5]; donor D1,1.09
same,"IL-8 level, D1",[5]; donor D1,22.01
same,"TNF-α level, D1",[5]; donor D1,2.33
same,IL-4 level,[5]; donor D2,0.03
same,IL-5 level,[5]; donor D2,0.72
same,"IFN-γ level, D2",[5]; donor D2,9.62
same,"IL-6 level, D2",[5]; donor D2,0.39
same,"IL-8 level, D2",[5]; donor D2,8.48
same,"TNF-α level, D2",[5]; donor D2,0.68
same,IL-4 level,[5]; donor D3,0.03
same,IL-5 level,[5]; donor D3,0.79
same,"IFN-γ level, D3",[5]; donor D3,8.80
same,"IL-6 level, D3",[5]; donor D3,0.92
same,"IL-8 level, D3",[5]; donor D3,11.36
same,"TNF-α level, D3",[5]; donor D3,1.67
same,IL-4 level,[5]; donor D4,0.09
same,IL-5 level,[5]; donor D4,BDL
same,"IFN-γ level, D4",[5]; donor D4,11.71
same,"IL-6 level, D4",[5]; donor D4,0.65
same,"IL-8 level, D4",[5]; donor D4,23.29
same,"TNF-α level, D4",[5]; donor D4,0.97
same,IL-4 level,[5]; donor D5,BDL
same,IL-5 level,[5]; donor D5,BDL
same,"IFN-γ level, D5",[5]; donor D5,301.71
same,"IL-6 level, D5",[5]; donor D5,8.95
same,"IL-8 level, D5",[5]; donor D5,95.5
same,"TNF-α level, D5",[5]; donor D5,5.88
same,IL-4 level,[5]; donor D6,BDL
same,IL-5 level,[5]; donor D6,BDL
same,"IFN-γ level, D6",[5]; donor D6,10.08
same,"IL-6 level, D6",[5]; donor D6,1.06
same,"IL-8 level, D6",[5]; donor D6,28.32
same,"TNF-α level, D6",[5]; donor D6,1.43
same,release of IFN-γ,[6],induced the release of IFN-γ in a concentration-dependent manner
